Data reported in patent US20260274910A1, “SINGLE FUSION PROTEIN AND PHARMACEUTICAL COMPOSITION” (MEDI&GENE INC., priority 2023, published 2026).

molecular target: ATP5B protein; assay: SPR, ATP5B amine-coupled to CM5 chip, peptide in flow at 50 ul/min; binding units relative to SEQ ID NO: 12
Sequence (P06576 48-529): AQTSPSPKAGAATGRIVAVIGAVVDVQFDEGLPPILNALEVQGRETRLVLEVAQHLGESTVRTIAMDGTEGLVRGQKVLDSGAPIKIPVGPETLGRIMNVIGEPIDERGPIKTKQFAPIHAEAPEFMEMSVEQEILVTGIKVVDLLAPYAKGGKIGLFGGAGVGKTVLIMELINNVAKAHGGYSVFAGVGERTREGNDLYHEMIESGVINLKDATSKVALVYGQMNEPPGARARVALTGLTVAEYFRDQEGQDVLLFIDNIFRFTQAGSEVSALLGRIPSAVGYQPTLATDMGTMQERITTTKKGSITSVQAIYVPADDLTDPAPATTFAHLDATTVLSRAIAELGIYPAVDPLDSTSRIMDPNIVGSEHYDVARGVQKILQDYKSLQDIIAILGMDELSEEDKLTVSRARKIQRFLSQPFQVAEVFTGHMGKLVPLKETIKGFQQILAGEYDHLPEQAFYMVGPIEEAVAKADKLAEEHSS

Binding (%)	Binder
158	VDRGAGSIREAGGAFGKREQAEEARYFR [Shortened substance (8-35) amino acid Ala substituted (31)]
97	VDRGAGSIAEAGGAFGKREQAEEERYFR [Shortened substance (8-35) amino acid Ala substituted (16)]
89.6	VDRGAGSIREAAGAFGKREQAEEERYFR [Shortened substance (8-35) amino acid Ala substituted (19)]
100	VDRAAGSIREAGGAFGKREQAEEERYFR [Shortened substance (8-35) amino acid Ala substituted (11)]
98.8	VDRGAGAIREAGGAFGKREQAEEERYFR [Shortened substance (8-35) amino acid Ala substituted (14)]
99.3	VDRGAGSAREAGGAFGKREQAEEERYFR [Shortened substance (8-35) amino acid Ala substituted (15)]
101	ADRGAGSIREAGGAFGKREQAEEERYFR [Shortened substance (8-35) amino acid Ala substituted (8)]
89.5	VDRGAGSIREAGGAFGKREAAEEERYFR [Shortened substance (8-35) amino acid Ala substituted (27)]
100	VDRGAGSIREAGGAFGAREQAEEERYFR [Shortened substance (8-35) amino acid Ala substituted (24)]
426	VDRGAGSIREAGGAFGKREQAEEEAYFR [Shortened substance (8-35) amino acid Ala substituted (32)]
96.7	VDRGAGSIREAGGAFGKREQAAEERYFR [Shortened substance (8-35) amino acid Ala substituted (29)]
100	VDRGAGSIREAGGAFGKREQAEEERYFR [Shortened substance (8-35)]
94.1	VDRGAGSIREAGGAFGKRAQAEEERYFR [Shortened substance (8-35) amino acid Ala substituted (26)]
146	VDRGAGSIREAGGAFGKREQAEEERAFR [Shortened substance (8-35) amino acid Ala substituted (33)]
102	VDRGAGSIREAGGAFAKREQAEEERYFR [Shortened substance (8-35) amino acid Ala substituted (23)]
92.1	VDRGAGSIREAGGAFGKREQAEEERYAR [Shortened substance (8-35) amino acid Ala substituted (34)]
94	VDRGAGSIREAGGAAGKREQAEEERYFR [Shortened substance (8-35) amino acid Ala substituted (22)]
94	VDRGAGSIREAGGAFGKREQAEAERYFR [Shortened substance (8-35) amino acid Ala substituted (30)]
68	VDRGAGSIREAGAAFGKREQAEEERYFR [Shortened substance (8-35) amino acid Ala substituted (20)]
104	VDAGAGSIREAGGAFGKREQAEEERYFR [Shortened substance (8-35) amino acid Ala substituted (10)]
110	VDRGAGSIREAGGAFGKREQAEEERYFA [Shortened substance (8-35) amino acid Ala substituted (35)]
98.5	VDRGAASIREAGGAFGKREQAEEERYFR [Shortened substance (8-35) amino acid Ala substituted (13)]
169	VDRGAGSIRAAGGAFGKREQAEEERYFR [Shortened substance (8-35) amino acid Ala substituted (17)]
91.6	VARGAGSIREAGGAFGKREQAEEERYFR [Shortened substance (8-35) amino acid Ala substituted (9)]
85.2	VDRGAGSIREAGGAFGKAEQAEEERYFR [Shortened substance (8-35) amino acid Ala substituted (25)]
